Measurements from article PMC7970865 (Scientific Reports, 2021).

T1: NPDP19 peptide (Plasmodium falciparum CSP junction, …)
T1 construct: also called peptide NPDP-19
T1 chain: KQPADGNPDPNANPNVDPN

T2: peptide 21 (Plasmodium falciparum CSP junction, …)
T2 construct: also called NP-DPNA-NPNV-DPNA-N
T2 chain: NPDPNANPNVDPNAN


What was measured:
[1] = target: P. falciparum sporozoite CSP (Plasmodium falciparum NF54, UniProt P19597); assay: cell-based or functional assay
NPDP19 peptide = target: T1, NPDP19 peptide; assay: ELISA; settings: both partners purified
NANPx6 peptide = target: T3, NANPx6 peptide (Plasmodium falciparum CSP repeat, …); assay: ELISA; settings: both partners purified
T3 construct: also called NANP6; short repeat peptide

[2] = target: T4, P. falciparum CSP on transgenic P. berghei sporozoites (Plasmodium falciparum, gene strain not …, UniProt Q7K740); assay: ELISA; settings: one partner purified
T4 construct: also called transgenic P. berghei sporozoites carrying the P. falciparum CSP gene; transgenic P. berghei-falciparum sporozoites

biotinylated NANPx6 = target: T5, biotinylated NANPx6 (Plasmodium falciparum CSP repeat, …); assay: BLI; Octet RED96; biotinylated FL-CSP or biotinylated NANPx6 on streptavidin biosensors, Fab in solution, kinetics buffer; global fit to 1:1 Langmuir model; settings: both partners purified
T5 construct: also called NANPx6 peptide; NANPx6 target antigen

peptide 21 = target: T2, peptide 21; assay: ELISA; settings: both partners purified

Binder	other [1]	binding result (NPDP19 peptide)	ng/ml mAb needed for OD = 1 (NANPx6 peptide)	binding result [2]	Kd (biotinylated NANPx6)	koff (biotinylated NANPx6)	kon (biotinylated NANPx6)	binding result (peptide 21)
mAb 663 (antibody, V domains shown) VH: EVQLLESGGGLEQPGGSLRLSCVVSGFTFSNYAFNWVRQAPGKGLEWVAIIYRSGSRMYHADSVKGRFTISRDDSKNTLFLQMNNLRAEDTAVYYCTTLLIYESDVGVDFWGQGTLVTVSS VL: DIVMTQSPLSLPVSPGEPASISCRSTQSLIFGEHNYLDWYLQKPGQSPQLLIYLASNRASGVPDRFSGSGSGTYFTLKISRVEAEDFGVYYCVQTVQVPYTFGQGTKLEIK	~100%	binds	< 10 ng/mL	binds	–	–	–	–
Fab 663 (Fab, V domains shown) VH: EVQLLESGGGLEQPGGSLRLSCVVSGFTFSNYAFNWVRQAPGKGLEWVAIIYRSGSRMYHADSVKGRFTISRDDSKNTLFLQMNNLRAEDTAVYYCTTLLIYESDVGVDFWGQGTLVTVSS VL: DIVMTQSPLSLPVSPGEPASISCRSTQSLIFGEHNYLDWYLQKPGQSPQLLIYLASNRASGVPDRFSGSGSGTYFTLKISRVEAEDFGVYYCVQTVQVPYTFGQGTKLEIK	–	–	–	–	138 nM	0.056 s⁻¹	400000 M⁻¹ s⁻¹	–
mAb CIS43 (antibody, V domains shown) VH: QVQLVQSGAEVKKPGASVKVSCKASGYTFTSYAIHWVRQAPGQRLEWMGWIKAGNGNTRYSQKFQDRVTITRDTSTTTAYMELSSLRSEDTAVYYCALLTVLTPDDAFDIWGQGTMVTVSS VL: not shown	~100%	binds	< 10 ng/mL	–	–	–	–	binds
Fab CIS43 (Fab, V domains shown) VH: QVQLVQSGAEVKKPGASVKVSCKASGYTFTSYAIHWVRQAPGQRLEWMGWIKAGNGNTRYSQKFQDRVTITRDTSTTTAYMELSSLRSEDTAVYYCALLTVLTPDDAFDIWGQGTMVTVSS VL: not shown	–	–	–	–	41 nM	0.0017 s⁻¹	40000 M⁻¹ s⁻¹	–
mAb 311 (antibody, V domains shown) VH: QVQLVESGGGVVPPGRSLRLSCATSGFTFSNYGMHWVRQAPGKGLEWVAIIWYDGSRNFYAASVEGRFTISRDNSKNTLYLQMNSLRVEDTAVYYCARAAYYDTSGYGDYWGQGTLVTVSS VL: QSVLTQPPSVSGAPGQTVTISCTGGSSNIGAGYDVHWYQQLPGTAPKLLIYGNINRPSGVPDRFSGSKSGTSASLAITGLQAEDEADYYCQSYDRRLSGSWVFGGGTKLTVL	~100%	binds	< 10 ng/mL	binds	–	–	–	–
Fab 311 (Fab, V domains shown) VH: QVQLVESGGGVVPPGRSLRLSCATSGFTFSNYGMHWVRQAPGKGLEWVAIIWYDGSRNFYAASVEGRFTISRDNSKNTLYLQMNSLRVEDTAVYYCARAAYYDTSGYGDYWGQGTLVTVSS VL: QSVLTQPPSVSGAPGQTVTISCTGGSSNIGAGYDVHWYQQLPGTAPKLLIYGNINRPSGVPDRFSGSKSGTSASLAITGLQAEDEADYYCQSYDRRLSGSWVFGGGTKLTVL	–	–	–	–	7 nM	0.0002 s⁻¹	27000 M⁻¹ s⁻¹	–
mAb 317 (antibody, V domains shown) VH: QMQLVESGGGVVQPGRSLRLSCTASGFTFSTYAMHWVRQSPGQGLQWVAVISYHSTNKYYEDSVRGRFTISRDNSKNTLYLQMNSLRAEDTAVYYCARDGYSSSFFDFWGQGTLVTVSS VL: DIQMTQSPSTLSASVGDRVAITCRASQSISRWLAWYQQQPGKAPKLLMSGASVLESGVPSRFSGSGSGTEFTLTISSLQPDDFATYYCQHYNSYFVTFGQGTKVEIK	–	–	< 10 ng/mL	–	–	–	–	–
Fab 317 (Fab, V domains shown) VH: QMQLVESGGGVVQPGRSLRLSCTASGFTFSTYAMHWVRQSPGQGLQWVAVISYHSTNKYYEDSVRGRFTISRDNSKNTLYLQMNSLRAEDTAVYYCARDGYSSSFFDFWGQGTLVTVSS VL: DIQMTQSPSTLSASVGDRVAITCRASQSISRWLAWYQQQPGKAPKLLMSGASVLESGVPSRFSGSGSGTEFTLTISSLQPDDFATYYCQHYNSYFVTFGQGTKVEIK	–	–	–	–	0.003 nM	–	–	–
mAb MGG4 (antibody, V domains shown) VH: QVQLVESGGGVVQPGRSLRLSCAASGFRFSDYGMHWVRQAPGKGLEWVALIWYDGSNESYLDSVKGRFTISRDNSKNTLYLQMNNLRTEDTAVYYCAKLLVGITTDVFDVWGQGTVVTVSS VL: DIVMTQSPDSLAVSLGERATINCRSSQSVLSSSNNKNYLAWYQHKPRQPPKLLIYWASTRESGVPDRFSGSGSGTDFTLTISSLQAEDVAVYYCQQYYTASPFFGGGTKVEIK	~100%	binds	< 10 ng/mL	binds	–	–	–	–
Fab MGG4 (Fab, V domains shown, also called MGG4 Fab) VH: QVQLVESGGGVVQPGRSLRLSCAASGFRFSDYGMHWVRQAPGKGLEWVALIWYDGSNESYLDSVKGRFTISRDNSKNTLYLQMNNLRTEDTAVYYCAKLLVGITTDVFDVWGQGTVVTVSS VL: DIVMTQSPDSLAVSLGERATINCRSSQSVLSSSNNKNYLAWYQHKPRQPPKLLIYWASTRESGVPDRFSGSGSGTDFTLTISSLQAEDVAVYYCQQYYTASPFFGGGTKVEIK	–	–	–	–	51 nM	0.0045 s⁻¹	90000 M⁻¹ s⁻¹	–
